Each block holds one substance with its values, some of them ahead of it.
Experiments:
[1] = molecular target: Aprataxin (APTX), human wild-type full-length (human) (UniProt Q7Z2E3); experiment: SPR; Biacore X-100, 25 °C; polβ, ligase IIIα or APTX amine-coupled on CM5; XRCC1 (wild-type or mutants) as analyte, 30 μl/min; 20 mM HEPES pH 7.4, 150 mM NaCl, 3 mM EDTA, 0.005% Surfactant P20; 1:1 (Langmuir) model
[2] = molecular target: DNA polymerase (pol) β, human wild-type full-length (1–335 aa) (human) (UniProt P06746); experiment: as above
[3] = molecular target: DNA ligase IIIα, human wild-type full-length (1–922 aa) (human); experiment: as above
[4] = molecular target: DNA polymerase (pol) β, human wild-type full-length (1–335 aa) (human) (UniProt P06746)
[5] = molecular target: DNA ligase IIIα, human wild-type full-length (1–922 aa) (human)
[6] = test system: DNA ligase IIIalpha (human); experiment: BLI; conditions: BLI (Octet QKe): 20 mM HEPES pH 7.4, 200 mM NaCl, 0.5% BSA, 0.05% Tween 20, 20 °C, ternary complexes plus 10 mM MgCl2 and 0.1 mM dGTP or 1 mM ATP
[7] = molecular target: DNA ligase IIIalpha;XRCC1 wild-type (human;human) (UniProt P18887); experiment: BLI; conditions: 10 mM Mg2+, 1 mM ATP; 1:1 ligase/XRCC1; koff 2.0e-4; BLI (Octet QKe): 20 mM HEPES pH 7.4, 200 mM NaCl, 0.5% BSA, 0.05% Tween 20, 20 °C; ternary complexes plus 10 mM MgCl2 and 0.1 mM dGTP or 1 mM ATP
[8] = molecular target: XRCC1 R280H R280H (human) (UniProt P18887); experiment: BLI; conditions: BLI (Octet QKe): 20 mM HEPES pH 7.4, 200 mM NaCl, 0.5% BSA, 0.05% Tween 20, 20 °C; ternary complexes plus 10 mM MgCl2 and 0.1 mM dGTP or 1 mM ATP
[9] = molecular target: DNA polymerase beta;XRCC1 wild-type (human;human) (UniProt P06746+P18887); experiment: BLI; conditions: BLI (Octet QKe): 20 mM HEPES pH 7.4, 200 mM NaCl, 0.5% BSA, 0.05% Tween 20, 20 °C; ternary complexes plus 10 mM MgCl2 and 0.1 mM dGTP or 1 mM ATP
[10] = molecular target: DNA polymerase beta (human) (UniProt P06746); experiment: BLI; conditions: BLI (Octet QKe): 20 mM HEPES pH 7.4, 200 mM NaCl, 0.5% BSA, 0.05% Tween 20, 20 °C; ternary complexes plus 10 mM MgCl2 and 0.1 mM dGTP or 1 mM ATP
XRCC1 wild-type (human) = XRCC1 wild-type (human) (UniProt P18887); experiment: BLI; conditions: BLI (Octet QKe): 20 mM HEPES pH 7.4, 200 mM NaCl, 0.5% BSA, 0.05% Tween 20, 20 °C; ternary complexes plus 10 mM MgCl2 and 0.1 mM dGTP or 1 mM ATP
[11] = molecular target: DNA polymerase beta (human) (UniProt P06746); experiment: BLI; conditions: BLI (Octet QKe): 20 mM HEPES pH 7.4, 200 mM NaCl, 0.5% BSA, 0.05% Tween 20, 20 °C; ternary complexes plus 10 mM MgCl2 and 0.1 mM dGTP or 1 mM ATP; remark: listed apart in the source

Sequence of Aprataxin (APTX), human wild-type full-length (human) (Q7Z2E3 whole entry, the tested form may be a part): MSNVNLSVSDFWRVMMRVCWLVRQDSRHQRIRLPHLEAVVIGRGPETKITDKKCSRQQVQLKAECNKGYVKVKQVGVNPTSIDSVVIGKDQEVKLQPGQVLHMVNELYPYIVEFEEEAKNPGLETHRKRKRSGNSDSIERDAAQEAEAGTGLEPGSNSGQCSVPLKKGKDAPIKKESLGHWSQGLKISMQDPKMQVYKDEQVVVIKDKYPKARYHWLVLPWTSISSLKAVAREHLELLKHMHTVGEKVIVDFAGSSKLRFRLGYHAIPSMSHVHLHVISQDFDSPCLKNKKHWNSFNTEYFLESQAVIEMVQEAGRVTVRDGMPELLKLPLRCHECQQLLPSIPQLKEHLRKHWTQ

Substance: XRCC1 V86R mutant (from UniProt P18887 1-633) (natural protein)
Kd [2]: 284 nM

Substance: nick DNA with 3'-dG:C
Kd ([6]; 10 mM Mg2+, 1 mM ATP, no XRCC1, koff 5.0e-4): 22 nM | Kd ([6]; no ATP): 5 nM | Kd [7]: 6.5 nM | Kd [8]: 140 nM

Substance: one nucleotide gap DNA, template C
Kd [9]: 30 nM | Kd [8]: 153 nM | Kd [10]: 355 nM | Kd (XRCC1 wild-type (human)): 110 nM | Kd [11]: 5.4 nM

The next lines start with results.

Kd [2]: 10.2 nM | Kd [3]: 50.4 nM | amount of ligation products in the coupled assay (polβ dGTP:C insertion coupled to ligation by ligase IIIα), with against without XRCC1 [4]: 2 fold | amount of ligation products, nick sealing of nick DNA with 3′-dG:C by ligase IIIα, with against without XRCC1 [5]: 4 fold
Substance: X-ray cross-complementing protein 1 (XRCC1), human wild-type full-length (1–633 aa) (from UniProt P18887 1-633) (natural protein)
Kd [1]: 374 nM

Kd [2]: 170 nM
Substance: XRCC1 R109A mutant (from UniProt P18887 1-633) (natural protein)

Kd [2]: 5.8 nM
Substance: XRCC1 cancer-associated variant R399Q (from UniProt P18887 1-633) (natural protein)
